B1: Rab-interacting lysosomal protein (Homo sapiens), Q96NA2 (parent)
chain: MEPRRAAPGVPGWGSREAAGSASAAELVYHLAGALGTELQDLARRFGPEAAAGLVPLVVRALELLEQAAVGPAPDSLQVSAQPAEQELRRLREENERLRRELRAGPQEERALLRQLKEVTDRQRDELRAHNRDLRQRGQETEALQEQLQRLLLVNAELRHKLAAMQTQLRAAQDRERERQQPGEAATPQAKERARGQAGRPGHQHGQEPEWATAGAGAPGNPEDPAEAAQQLGRPSEAGQCRFSREEFEQILQERNELKAKVFLLKEELAYFQRELLTDHRVPGLLLEAMKVAVRKQRKKIKAKMLGTPEEAESSEDEAGPWILLSDDKGDHPPPPESKIQSFFGLWYRGKAESSEDETSSPAPSKLGGEEEAQPQSPAPDPPCSALHEHLCLGASAAPEA

Variants of: B1
Settings: with rab7a_human RAB7A

Effect of a mutation on the interaction, disrupting interaction strength:
MEPRRAAPGVPGWGSREAAGSASAAELVYHLAGALGTELQDLARRFGPEAAAGLVPLVVRALELLEQAAVGPAPDSLQVSAQPAEQELRRLREENERLRRELRAGPQEERALLRQLKEVTDRQRDELRAHNRDLRQRGQETEALQEQLQRLLLVNAELRHKLAAMQTQLRAAQDRERERQQPGEAATPQAKERARGQAGRPGHQHGQEPEWATAGAGAPGNPEDPAEAAQQLGRPSEAGQCRFSREEFEQALQERNELKAKVFLLKEELAYFQRELLTDHRVPGLLLEAMKVAVRKQRKKIKAKMLGTPEEAESSEDEAGPWILLSDDKGDHPPPPESKIQSFFGLWYRGKAESSEDETSSPAPSKLGGEEEAQPQSPAPDPPCSALHEHLCLGASAAPEA [I251A]
MEPRRAAPGVPGWGSREAAGSASAAELVYHLAGALGTELQDLARRFGPEAAAGLVPLVVRALELLEQAAVGPAPDSLQVSAQPAEQELRRLREENERLRRELRAGPQEERALLRQLKEVTDRQRDELRAHNRDLRQRGQETEALQEQLQRLLLVNAELRHKLAAMQTQLRAAQDRERERQQPGEAATPQAKERARGQAGRPGHQHGQEPEWATAGAGAPGNPEDPAEAAQQLGRPSEAGQCRFSREEFEQILQERNELKAKVFLLKEELAYFQRELLTDHRVPGLLLEAMKVAVRKQRKKIKAKALGTPEEAESSEDEAGPWILLSDDKGDHPPPPESKIQSFFGLWYRGKAESSEDETSSPAPSKLGGEEEAQPQSPAPDPPCSALHEHLCLGASAAPEA [M305A]
MEPRRAAPGVPGWGSREAAGSASAAELVYHLAGALGTELQDLARRFGPEAAAGLVPLVVRALELLEQAAVGPAPDSLQVSAQPAEQELRRLREENERLRRELRAGPQEERALLRQLKEVTDRQRDELRAHNRDLRQRGQETEALQEQLQRLLLVNAELRHKLAAMQTQLRAAQDRERERQQPGEAATPQAKERARGQAGRPGHQHGQEPEWATAGAGAPGNPEDPAEAAQQLGRPSEAGQCRFSREEFEQILQERNEAKAKVFLLKEELAYFQRELLTDHRVPGLLLEAMKVAVRKQRKKIKAKMLGTPEEAESSEDEAGPWILLSDDKGDHPPPPESKIQSFFGLWYRGKAESSEDETSSPAPSKLGGEEEAQPQSPAPDPPCSALHEHLCLGASAAPEA [L258A]
MEPRRAAPGVPGWGSREAAGSASAAELVYHLAGALGTELQDLARRFGPEAAAGLVPLVVRALELLEQAAVGPAPDSLQVSAQPAEQELRRLREENERLRRELRAGPQEERALLRQLKEVTDRQRDELRAHNRDLRQRGQETEALQEQLQRLLLVNAELRHKLAAMQTQLRAAQDRERERQQPGEAATPQAKERARGQAGRPGHQHGQEPEWATAGAGAPGNPEDPAEAAQQLGRPSEAGQCRFSREEFEQIAQERNELKAKVFLLKEELAYFQRELLTDHRVPGLLLEAMKVAVRKQRKKIKAKMLGTPEEAESSEDEAGPWILLSDDKGDHPPPPESKIQSFFGLWYRGKAESSEDETSSPAPSKLGGEEEAQPQSPAPDPPCSALHEHLCLGASAAPEA [L252A]
MEPRRAAPGVPGWGSREAAGSASAAELVYHLAGALGTELQDLARRFGPEAAAGLVPLVVRALELLEQAAVGPAPDSLQVSAQPAEQELRRLREENERLRRELRAGPQEERALLRQLKEVTDRQRDELRAHNRDLRQRGQETEALQEQLQRLLLVNAELRHKLAAMQTQLRAAQDRERERQQPGEAATPQAKERARGQAGRPGHQHGQEPEWATAGAGAPGNPEDPAEAAQQLGRPSEAGQCRFSREEFEQILQERNELKAKVFLLKEELAYFQRELLTDHRVPGLLLEAMKVAVRKQRKKIKAAMLGTPEEAESSEDEAGPWILLSDDKGDHPPPPESKIQSFFGLWYRGKAESSEDETSSPAPSKLGGEEEAQPQSPAPDPPCSALHEHLCLGASAAPEA [K304A]
MEPRRAAPGVPGWGSREAAGSASAAELVYHLAGALGTELQDLARRFGPEAAAGLVPLVVRALELLEQAAVGPAPDSLQVSAQPAEQELRRLREENERLRRELRAGPQEERALLRQLKEVTDRQRDELRAHNRDLRQRGQETEALQEQLQRLLLVNAELRHKLAAMQTQLRAAQDRERERQQPGEAATPQAKERARGQAGRPGHQHGQEPEWATAGAGAPGNPEDPAEAAQQLGRPSEAGQCRFSREEFEQILQEANELKAKVFLLKEELAYFQRELLTDHRVPGLLLEAMKVAVRKQRKKIKAKMLGTPEEAESSEDEAGPWILLSDDKGDHPPPPESKIQSFFGLWYRGKAESSEDETSSPAPSKLGGEEEAQPQSPAPDPPCSALHEHLCLGASAAPEA [R255A]
MEPRRAAPGVPGWGSREAAGSASAAELVYHLAGALGTELQDLARRFGPEAAAGLVPLVVRALELLEQAAVGPAPDSLQVSAQPAEQELRRLREENERLRRELRAGPQEERALLRQLKEVTDRQRDELRAHNRDLRQRGQETEALQEQLQRLLLVNAELRHKLAAMQTQLRAAQDRERERQQPGEAATPQAKERARGQAGRPGHQHGQEPEWATAGAGAPGNPEDPAEAAQQLGRPSEAGQCRFSREEFEQILQERNELKAKVFLLKEELAYFQRELLTDHRVPGLLLEAMKVAVRKQRKKIKAKMAGTPEEAESSEDEAGPWILLSDDKGDHPPPPESKIQSFFGLWYRGKAESSEDETSSPAPSKLGGEEEAQPQSPAPDPPCSALHEHLCLGASAAPEA [L306A]

Source: IntAct's records for PubMed 15933719
